These are literature values, as cited in PMC4174909.

Broadly, the pKa is the negative logarithm of the acid dissociation constant.

In the series the target is His37 (UniProt position 37, IIGILHLILWI).

With “Matrix protein 2 (M2 proton channel) (Influenza A virus (strain not stated for the quoted pKa values; the experiments of this article use A/Udorn/72))”, the pKa is 8.2 and about 6 and about 4 to 5.
